pKd: −log10 of the molar value.
Legend:
nrgECD = nrgECD (UniProt Q02297); assay: Biacore SPR, immobilised nrgECD
nrgEGF = nrgEGF (UniProt Q02297); assay: Biacore SPR
nrgbx = nrgbx (UniProt Q02297); assay: cell-based or functional assay
nrgbx, sequence (Q02297 other isoform, or with tags, fused parts or gaps limits assumed): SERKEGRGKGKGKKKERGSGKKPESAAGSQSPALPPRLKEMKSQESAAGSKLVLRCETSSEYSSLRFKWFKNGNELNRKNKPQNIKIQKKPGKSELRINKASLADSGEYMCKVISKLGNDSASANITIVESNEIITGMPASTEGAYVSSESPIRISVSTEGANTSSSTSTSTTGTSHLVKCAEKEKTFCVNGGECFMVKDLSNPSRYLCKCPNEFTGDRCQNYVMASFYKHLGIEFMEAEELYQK

IGFBP3-Fc-ErbB4 (Fc fusion), sequence (chain): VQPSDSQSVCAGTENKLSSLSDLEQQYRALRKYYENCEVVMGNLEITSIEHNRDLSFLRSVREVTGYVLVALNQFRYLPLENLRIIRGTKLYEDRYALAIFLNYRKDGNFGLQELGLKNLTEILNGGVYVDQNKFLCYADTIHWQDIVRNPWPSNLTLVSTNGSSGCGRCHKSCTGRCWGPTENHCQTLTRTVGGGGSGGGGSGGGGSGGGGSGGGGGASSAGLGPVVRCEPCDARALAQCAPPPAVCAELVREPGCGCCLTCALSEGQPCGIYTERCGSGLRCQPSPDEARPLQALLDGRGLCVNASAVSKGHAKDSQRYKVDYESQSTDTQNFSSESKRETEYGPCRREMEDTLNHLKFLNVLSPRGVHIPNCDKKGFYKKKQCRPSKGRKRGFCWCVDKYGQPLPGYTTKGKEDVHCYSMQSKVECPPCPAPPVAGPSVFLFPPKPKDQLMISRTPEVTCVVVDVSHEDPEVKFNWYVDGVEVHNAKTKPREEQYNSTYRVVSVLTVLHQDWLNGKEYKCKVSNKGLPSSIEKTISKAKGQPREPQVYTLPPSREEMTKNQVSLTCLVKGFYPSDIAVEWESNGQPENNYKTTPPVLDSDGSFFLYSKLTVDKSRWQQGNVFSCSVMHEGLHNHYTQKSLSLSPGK
IGFBP3-Fc-VEGF-ErbB4 (Fc fusion), sequence (chain): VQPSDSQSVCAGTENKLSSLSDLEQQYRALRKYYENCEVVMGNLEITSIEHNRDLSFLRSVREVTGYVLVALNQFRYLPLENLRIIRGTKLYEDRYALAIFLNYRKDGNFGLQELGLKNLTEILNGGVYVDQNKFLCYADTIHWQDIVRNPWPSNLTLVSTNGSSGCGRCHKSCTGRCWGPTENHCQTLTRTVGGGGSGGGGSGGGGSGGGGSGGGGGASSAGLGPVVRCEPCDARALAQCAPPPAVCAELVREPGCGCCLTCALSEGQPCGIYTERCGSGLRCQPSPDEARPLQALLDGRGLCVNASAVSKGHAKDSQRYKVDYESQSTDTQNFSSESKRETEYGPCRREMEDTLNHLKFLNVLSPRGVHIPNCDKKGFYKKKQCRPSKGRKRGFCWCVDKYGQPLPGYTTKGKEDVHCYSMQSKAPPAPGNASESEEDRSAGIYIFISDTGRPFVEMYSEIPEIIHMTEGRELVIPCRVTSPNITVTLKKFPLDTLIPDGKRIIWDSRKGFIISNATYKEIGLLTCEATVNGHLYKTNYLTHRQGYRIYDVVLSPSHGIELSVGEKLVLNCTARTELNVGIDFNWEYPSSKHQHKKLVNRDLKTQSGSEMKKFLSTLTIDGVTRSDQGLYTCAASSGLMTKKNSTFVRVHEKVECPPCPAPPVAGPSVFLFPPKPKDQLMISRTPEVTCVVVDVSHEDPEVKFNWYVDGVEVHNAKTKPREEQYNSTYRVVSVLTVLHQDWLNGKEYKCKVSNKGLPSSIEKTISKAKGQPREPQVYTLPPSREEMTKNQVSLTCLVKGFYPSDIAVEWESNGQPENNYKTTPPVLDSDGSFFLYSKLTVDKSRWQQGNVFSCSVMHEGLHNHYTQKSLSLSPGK
IGFBP3-Fc (Fc fusion), sequence (chain): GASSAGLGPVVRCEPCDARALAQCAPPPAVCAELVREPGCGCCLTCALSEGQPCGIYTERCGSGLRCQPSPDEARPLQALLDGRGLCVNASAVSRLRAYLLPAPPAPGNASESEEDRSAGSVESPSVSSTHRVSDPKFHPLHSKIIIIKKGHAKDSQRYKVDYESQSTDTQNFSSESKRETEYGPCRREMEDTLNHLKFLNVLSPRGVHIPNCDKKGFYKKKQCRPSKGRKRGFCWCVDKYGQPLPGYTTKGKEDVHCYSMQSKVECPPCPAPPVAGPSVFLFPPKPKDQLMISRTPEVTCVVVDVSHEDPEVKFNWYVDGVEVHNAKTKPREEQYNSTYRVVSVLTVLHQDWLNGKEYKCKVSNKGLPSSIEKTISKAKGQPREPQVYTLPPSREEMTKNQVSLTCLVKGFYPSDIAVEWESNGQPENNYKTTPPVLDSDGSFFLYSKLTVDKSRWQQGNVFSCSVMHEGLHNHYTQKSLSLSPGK
IGFBP3-Fc-VEGF (Fc fusion), sequence (chain): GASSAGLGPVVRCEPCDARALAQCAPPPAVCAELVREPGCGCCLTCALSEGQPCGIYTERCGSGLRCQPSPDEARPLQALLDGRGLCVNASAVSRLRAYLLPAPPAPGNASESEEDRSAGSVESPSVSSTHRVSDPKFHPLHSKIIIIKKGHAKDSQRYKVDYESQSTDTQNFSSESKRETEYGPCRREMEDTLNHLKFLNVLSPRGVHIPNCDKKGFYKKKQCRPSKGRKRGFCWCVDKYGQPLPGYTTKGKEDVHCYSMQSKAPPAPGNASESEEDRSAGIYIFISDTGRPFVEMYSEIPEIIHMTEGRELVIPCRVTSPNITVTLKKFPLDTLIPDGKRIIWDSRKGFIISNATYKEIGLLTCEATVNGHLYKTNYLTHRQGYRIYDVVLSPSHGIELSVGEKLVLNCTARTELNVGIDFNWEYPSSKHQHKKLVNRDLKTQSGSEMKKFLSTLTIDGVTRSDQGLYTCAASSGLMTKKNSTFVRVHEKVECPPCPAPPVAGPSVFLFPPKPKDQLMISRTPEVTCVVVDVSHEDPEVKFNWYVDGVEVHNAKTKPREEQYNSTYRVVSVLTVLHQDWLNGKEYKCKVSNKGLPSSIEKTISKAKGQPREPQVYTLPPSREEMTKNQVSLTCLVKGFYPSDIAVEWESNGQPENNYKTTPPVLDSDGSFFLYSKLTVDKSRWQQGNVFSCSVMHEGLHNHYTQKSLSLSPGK

pKd (nrgECD) | pKd (nrgEGF) | IC50 in inhibiting neuregulin-induced proliferation (nrgbx) [nM] | Substance
8.28 |  |  | IGFBP3-Fc (Fc fusion)
11.40 | 8.22 |  | IGFBP3-Fc-ErbB4 (Fc fusion)
9.74 |  |  | IGFBP3-Fc-VEGF (Fc fusion)
12.96 | 7.96 |  | IGFBP3-Fc-VEGF-ErbB4 (Fc fusion)
 |  | 14 | chimera erbB4-A (Fc fusion)

— US20190359666A1
